Test results from paper doi:10.1101/173674.
Blank lines part the entries; values can stand above or below the substance they belong to.

Experiments:
Experiment in all cases: crystal structure
[1] = biological target: HpiC1 F138S (Fischerella sp. ATCC 43239)
[2] = biological target: HpiC1 Y101S (Fischerella sp. ATCC 43239)
[3] = biological target: HpiC1 Y101F/F138S (Fischerella sp. ATCC 43239)
[4] = biological target: HpiC1 Y101F (Fischerella sp. ATCC 43239)
[5] = biological target: HpiC1 W73M/K132M selenomethionine derivative (Fischerella sp. ATCC 43239)
[6] = biological target: HpiC1 native (Fischerella sp. ATCC 43239)

Substance: HpiC1 F138S (enzyme)
stoichiometry N [1]: 2

Substance: HpiC1 Y101F (enzyme)
stoichiometry N [4]: 2

Second part, the substance after the results:

stoichiometry N [2]: 2
Substance: HpiC1 Y101S (enzyme)

stoichiometry N [3]: 2
Substance: HpiC1 Y101F/F138S (enzyme)

stoichiometry N [5]: 2
Substance: HpiC1 W73M/K132M selenomethionine derivative (enzyme)

stoichiometry N [6]: 2
Substance: HpiC1 native (enzyme)
